Experimental findings from patent publication US20190382474A1 (SURFACE ONCOLOGY, published 2019) are described below.

The chains are these.
B1: Ab7.1 (antibody, human IgG1, kappa)
heavy: not shown
light: DIQMTQSPASLSASVGETVTITCRASENIYSYLAWYQQKQGKSPQLLVYNAETLTEGVPSRFSGSGSGTQFSLKINSLQPEDFGNYYCQHHYGTPLTFGAGTKLDLKRTVAAPSVFIFPPSDEQLKSGTASVVCLLNNFYPREAKVQWKVDNALQSGNSQESVTEQDSKDSTYSLSSTLTLSKADYEKHKVYACEVTHQGLSSPVTKSFNRGEC
notes: human IgG1/kappa chimera from HEK293 EBNA cells; also called chimeric Ab7.1 antibody; chimeric antibody
B2: Ab7.2 (antibody, human IgG1, kappa, V domains shown)
VH: EVKLVESGGGLVQPGGSLKLFCAASGFTFTSYSMSWVRQTPEKRLEWVAYISYDGGSAYYPDTVKGRFSISRDNAKKTLYLQMSSLKSEDTAMYYCARHGDYDDDDAMDYWGQGTSVTVSS
VL: DIQMTQSPSSLSASVGDRVTITCRASENIYSYLAWYQQKQGKAPKLLVYNAETLTEGVPSRFSGSGSGTDFTLTISSLQPEDFANYYCQHHYGTPLTFGQGTKLDIKR
notes: human IgG1/kappa
B3: Ab7.3 (antibody, human IgG1, kappa, V domains shown)
VH: B2 VH with K19R, F21S, T40A, E42G, R44G, S69T, A75S
VL: DIQMTQSPASLSASVGETVTITCRASENIYSYLAWYQQKQGKSPQLLVYNAETLTEGVPSRFSGSGSGTQFSLKINSLQPEDFGNYYCQHHYGTPLTFGAGTKLDLKR
notes: human IgG1/kappa
B4: Ab7.17 (antibody, human IgG1, kappa, V domains shown)
VH: EVQLVESGGGLVQPGGSLRLSCAASGFTFTSYSMSWVRQAPGKGLEWVAYISYDGGSAYYPDTVKGRFTISRDNSKNTLYLQMNSLRAEDTAVYYCARHGDYDDDDAMDYWGQGTLVTVSS
VL: B2 VL with Q40P, D105E
notes: human IgG1/kappa
B5: Ab7.9 (antibody, human IgG1, kappa, V domains shown)
VH: B4 VH with N84S, R87K, A88S, V93M
VL: B2 VL with Q40P, D105E
notes: human IgG1/kappa
B6: Ab7.8 (antibody, human IgG1, kappa, V domains shown)
VH: B4 VH with N84S, R87K, A88S, V93M
VL: B2 VL
notes: human IgG1/kappa
B7: Ab7.10 (antibody, human IgG1, kappa, V domains shown)
VH: B4 VH with N84S, R87K, A88S, V93M
VL: B2 VL with Q40P, N85T, D105E
notes: human IgG1/kappa
B8: Ab7.12 (antibody, human IgG1, kappa, V domains shown)
VH: B4 VH with Q3K, N77K
VL: B2 VL
notes: human IgG1/kappa
B9: Ab7.13 (antibody, human IgG1, kappa, V domains shown)
VH: B4 VH with Q3K, N77K
VL: B2 VL with Q40P, D105E
notes: human IgG1/kappa
B10: Ab7.5 (antibody, human IgG1, kappa, V domains shown)
VH: B2 VH with K19R, F21S, T40A, E42G, R44G, S69T, A75S
VL: B2 VL with Q40P, D105E
notes: human IgG1/kappa
B11: Ab7.4 (antibody, human IgG1, kappa, V domains shown)
VH: B2 VH with K19R, F21S, T40A, E42G, R44G, S69T, A75S
VL: B2 VL
notes: human IgG1/kappa
B12: SRF414 (antibody, V domains shown)
VH: QVQLQQWGAGLLKPSETLSLTCAVYGGSFSRYYWSWIRQPPGKGLEWIGSIDYSGSTEYNPSLKSRVTISVDTSKNQFSLKLSSVTAADTAVYYCARDGVYYDSSDLGFDIWGQGTMVTVSS
VL: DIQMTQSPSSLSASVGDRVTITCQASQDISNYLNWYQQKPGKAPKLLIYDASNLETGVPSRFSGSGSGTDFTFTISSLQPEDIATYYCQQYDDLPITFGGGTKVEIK
notes: also called SRF414-A; SRF414-B
B13: SRF573 (antibody, V domains shown)
VH: QVQLVQSGAEVKKPGSSVKVSCKASGGTFSSYAISWVRQAPGQGLEWMGGIIPIFGTANYAQKFQGRVTITADESTSTAYMELSSLRSEDTAVYYCARSYYSSRWHYYYYMDVWGKGTTVTVSS
VL: DIQMTQSPSSVSASVGDRVTITCRASQGISSWLAWYQQKPGKAPKLLIYAASNLQSGVPSRFSGSGSGTDFTLTISSLQPEDFATYYCQQADDLPLTFGGGTKVEIKR
B14: SRF583 (antibody, V domains shown)
VH: QLQLQESGPGLVKPSETLSLTCTVSGGSISSSSYYWGWIRQPPGKGLEWIGSISYSGSTYYNPSLKSRVTISVDTSKNQFSLKLSSVTAADTAVYYCAREEYSFSYLDYWGQGTTVTVSS
VL: B13 VL with D92L, D93L, L94F, L96P
B15: SRF541 (antibody, V domains shown)
VH: QVQLQESGPGLVKPSETLSLTCTVSGGSISSYYWSWIRQPPGKGLEWIGSIYYSGSTNYNPSLKSRVTISVDTSKNQFSLKLSSVTAADTAVYYCAREVDRDDVAFDIWGQGTMVTVSS
VL: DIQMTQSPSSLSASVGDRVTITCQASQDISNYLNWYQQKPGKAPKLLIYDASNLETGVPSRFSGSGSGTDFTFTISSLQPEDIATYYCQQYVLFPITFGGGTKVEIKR

Residue numbers refer to the chain shown, from its start. “And” between values parts separate entries of the source, which are not always exact repeats. Identical values can stand only once.

In the first test the target is T1, recombinant human IL-27 (human, UniProt Q14213 21-229; Q8NEV9 29-243).
T1 construct: Bought from R&D Systems (Cat. 2526-IL); also called hIL-27; rhIL-27
T1 sequence 1: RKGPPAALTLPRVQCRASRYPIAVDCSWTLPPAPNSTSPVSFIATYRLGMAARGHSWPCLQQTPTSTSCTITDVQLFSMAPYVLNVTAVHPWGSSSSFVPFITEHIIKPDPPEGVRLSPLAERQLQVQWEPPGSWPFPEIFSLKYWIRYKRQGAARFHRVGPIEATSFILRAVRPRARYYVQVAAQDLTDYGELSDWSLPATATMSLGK
T1 sequence 2: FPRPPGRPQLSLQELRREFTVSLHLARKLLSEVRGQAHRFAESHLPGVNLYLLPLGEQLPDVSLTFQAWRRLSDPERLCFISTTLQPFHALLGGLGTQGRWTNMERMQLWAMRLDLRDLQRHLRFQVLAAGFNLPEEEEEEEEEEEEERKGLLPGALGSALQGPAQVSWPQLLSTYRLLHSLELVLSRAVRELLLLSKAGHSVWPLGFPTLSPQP
In words: SPR, hIL-27 on CM5 chip, bivalent analyte model. The procedure: (§1) The antibodies were further characterized by surface plasmon resonance (SPR). Kinetic experiments were performed on a Biacore T200 (GE Healthcare, Uppsala, Sweden). All experiments were run at 25° C. with HBS-P+ running buffer (pH 7.4) (GE Healthcare, Little Chalfont, UK) using hIL-27 (R&D Systems, Abingdon, UK). Human IL-27 (hIL-27) antigen was captured on a CM5 chip to ˜16 RU. Immobilization was carried out at a protein concentration of 1 μg/mL in 10 mM acetate buffer pH 5.0. A three point, three-fold dilution range from 3.3 nM to 30 nM of antibody diluted in HBS-P+ buffer without regeneration between each concentration was used. The association phase for the three injections of increasing concentrations of antibody was monitored for 75 seconds each time and a single dissociation phase was measured for 250 seconds following the last injection of antibody. Regeneration of the hIL-27 surface was conducted using a single injection of 2M MgCl₂ for 120 s. Multiple repeats (n=4) of the chimeric antibody were performed throughout the assay to check the stability of the surface and analyte over the kinetic cycles.
(§2) Both 1:1 binding and bivalent analyte models were used to analyze the data due to the bivalent nature of the antibody. The results from the 1:1 binding model analysis are summarized in Table 4 and results from the bivalent analyte model are summarized in Table 5.
(SPR reads the build-up and loss of mass on a sensor chip optically.)
Consider B1, for which the ka2 is 0.021 1/RUs and the kd2 turned out to be 0.046 s⁻¹.
For the molecule B2, the ka2 is 0.035 1/RUs and the kd2 was 0.087 s⁻¹.
As to B3, the ka2 was 0.029 1/RUs and the kd2 came to 0.063 s⁻¹.
Turning to B4, the ka2 is 0.039 1/RUs and the kd2 worked out at 0.09 s⁻¹.
As for B5, the ka2 is 0.043 1/RUs and the kd2 worked out at 0.11 s⁻¹.
Consider B6, for which the ka2 is 0.064 1/RUs and the kd2 was found to be 0.15 s⁻¹.
For B7 the same measures were 0.084 1/RUs and 0.2 s⁻¹.
For B8 the same measures were 0.11 1/RUs and 0.29 s⁻¹.
Taken in the same sequence, the figures for B9 were 0.02 1/RUs and 0.053 s⁻¹.
As for B10, the ka2 was 0.028 1/RUs and the kd2 was determined as 0.068 s⁻¹.

In another test the target is T1, recombinant human IL-27. In words: SPR, hIL-27 on CM5 chip, bivalent analyte model (ka1). How it is done: as §1, §2
As for B1, the kon was determined as 670000 M⁻¹ s⁻¹.
Same read-out and setting: to B2 belongs 700000 M⁻¹ s⁻¹; to B3, 750000 M⁻¹ s⁻¹.
For B4, the kon amounted to 580000 M⁻¹ s⁻¹.
As for B5, the kon came to 590000 M⁻¹ s⁻¹.
The same measure, in the same setting: to B6 belongs 580000 M⁻¹ s⁻¹; to B7, 600000 M⁻¹ s⁻¹.
Still for that read-out and setting: to B11 belongs 720000 M⁻¹ s⁻¹ and 710000 M⁻¹ s⁻¹; to B8, 750000 M⁻¹ s⁻¹; to B9, 740000 M⁻¹ s⁻¹.
The same measure, in the same setting: to B10 belongs 680000 M⁻¹ s⁻¹.

In the next test the target is T1, recombinant human IL-27. In words: SPR, hIL-27 on CM5 chip, bivalent analyte model (kd1). How it is done: as §1, §2
Consider B1, for which the dissociation rate constant (koff) was determined as 0.0022 s⁻¹.
Take B2: the koff was found to be 0.0027 s⁻¹.
With B3, the koff stood at 0.0022 s⁻¹.
Same read-out and setting: the result for B4 reads 0.0029 s⁻¹; that for B5, 0.0028 s⁻¹; that for B6, 0.0027 s⁻¹.
The same measure, in the same setting: the result for B7 reads 0.0025 s⁻¹; that for B11, 0.0026 s⁻¹ and 0.0025 s⁻¹; that for B8, 0.0026 s⁻¹.
On to B9, for which the koff was 0.0026 s⁻¹.
As to B10, the koff came out at 0.0027 s⁻¹.

A further test deals with T1, recombinant human IL-27. In words: SPR (Biacore T200), hIL-27 on CM5 chip, single cycle, 1:1 model. How it is done: as §1, §2
B1: the Kd was determined as 1 nM, the “Relative KD to Ab7.1” value worked out at 1, the koff came to 0.0015 s⁻¹ and the kon turned out to be 1.4e+06 M⁻¹ s⁻¹.
Taken in the same sequence, the figures for B2 were 1.2 nM, 1.2, 0.0018 s⁻¹ and 1.5e+06 M⁻¹ s⁻¹.
For B3 the same measures were 0.96 nM, 0.9, 0.0015 s⁻¹ and 1.5e+06 M⁻¹ s⁻¹.
On to B4, for which the Kd is 1.5 nM, the “Relative KD to Ab7.1” value was 1.5, the koff turned out to be 0.0019 s⁻¹ and the kon was 1.3e+06 M⁻¹ s⁻¹.
With B5, the Kd was determined as 1.5 nM, the “Relative KD to Ab7.1” value was found to be 1.5, the koff was 0.0019 s⁻¹ and the kon was determined as 1.3e+06 M⁻¹ s⁻¹.
For B6 the same measures were 1.5 nM, 1.4, 0.0018 s⁻¹ and 1.3e+06 M⁻¹ s⁻¹.
On to B7, for which the Kd turned out to be 1.4 nM, the “Relative KD to Ab7.1” value amounted to 1.4, the koff stood at 0.0018 s⁻¹ and the kon is 1.3e+06 M⁻¹ s⁻¹.
As to B11, the Kd was 1.2 nM and 1.3 nM; the “Relative KD to Ab7.1” value was 1.2; the koff is 0.0018 s⁻¹; the kon came out at 1.5e+06 M⁻¹ s⁻¹.
In the case of B8, the Kd came to 1.2 nM, the “Relative KD to Ab7.1” value was 1.2, the koff was found to be 0.0018 s⁻¹ and the kon is 1.5e+06 M⁻¹ s⁻¹.
For B9 the same measures were 1.2 nM, 1.2, 0.0018 s⁻¹ and 1.5e+06 M⁻¹ s⁻¹.
Taken in the same sequence, the figures for B10 were 1.2 nM, 1.2, 0.0018 s⁻¹ and 1.5e+06 M⁻¹ s⁻¹.

Another test has as its target T1, recombinant human IL-27. Kind of test: column 'Affinity hIL-27 (M)', property (i); method not given, paragraph 885 names SPR (BIACORE 2000).
With B12, the Kd came out at 0.52 nM.
In the case of B13, the Kd was 0.74 nM.
As for B14, the Kd was 1.98 nM.
On the same count and under the same terms, to B15 belongs 94.4 nM.

The kon is a measure of how fast the partners come together. One may read the koff as the rate constant with which the complex falls apart. Usually Kd stands for the concentration at which binding is half-saturated.
